Source: the DeepSol protein solubility set

Assay: soluble on expression in E. coli; label from the status in PepcDB or PDB records

Sequence | soluble on expression in E. coli
MGSDKIHHHHHHMAKFKIEIDSETCLGYKECGLCVSACEESIIVPDEKTGKVKVDKTREINCDGLGACLDVCPVGALKITSESGFSCGGHSGNPCPGSAVKSFNRSEQRSEMLQNKETESELLNWPVQLHLLNPNASYFKNADLIIAADCVPFAYPDFHNNLLKGKVLAIACPKLDDTKDYMLKIRQIVEKNNIKNVTVAIMTVPCCSGLYSLVNRALDGLDVNITKKVISLDGKLMD | not soluble
MAGDPMFKKRLNKDKINDCYTWEEELPDGSYDMGFHGNLNHMEKGKSGYVTHKQLDKKLEVFKQDLLVELSEKFVTKEEFRAQGKQIKELQIEQKAQGKTLQLILEALQGINKRLDKLESKLEHHHHHH | soluble
MDITELLAFSAKQGASDLHLSAGLPPMIRVDGDVRRINLPPLEHKQVHALIYDIMNDKQRKDFEEFLETDFSFEVPGVARFRVNAFNQNRGAGAVFRTIPSKVLTMEELGMGEVFKRVSDVPRGLVLVTGPTGSGKSTTLAAMLDYLNNTKYHHILTIEDPIEFVHESKKCLVNQREVHRDTLGFSEALRSALREDPDIILVGEMRDLETIRLALTAAETGHLVFGTLHTTSAAKTIDRVVDVFPAEEKAMVRSMLSESLQSVISQTLIKKIGGGRVAAHEIMIGTPAIRNLIREDKVAQMYSAIQTGGSLGMQTLDMCLKGLVAKGLISRENAREKAKIPENFGAAALEHHHHHH | soluble
MKNVLILGAGGQIARHVINQLADKQTIKQTLFARQPAKIHKPYPTNSQIIMGDVLNHAALKQAMQGQDIVYANLTGEDLDIQANSVIAAMKACDVKRLIFVLSLGIYDEVPGKFVEWNNAVIGEPLKPFRRAADAIEASGLEYTILRPAWLTDEDIIDYELTSRNEPFKGTIVSRKSVAALITDIIDKPEKHIGENIGINQPGTDGDKPFFM | soluble
MSLENISETLRTLMNRKNLNHRYEALMTAVYQDPDVRQFLAAHQNELSSDALERSAAKLYEFCEEKRKIARHEPTQAPGYQPTLVMSNHLIDIAYQPTPQMQEQQAAHALQQRVRSISMPKNIQTADLKTYDQDGDRATALMAALDFIDAYTQAPKRFHRGLYLYGSFGVGKTYLLGGMANALAAKGFNTTLIHFPSFAVEMKRSISNNTSADKVDAIKRAPILMIDDIGADASSTWIRDDVLGVILEYRMQEELPTCFSSNFSMQELQDGYLTLSQKGDEEPVKAQRIMQRVRYLASEIEMVGRNRRLNPDAEGHHHHHH | soluble
MASVVGTPKSAEQIQQEWDTNPRWKDVTRTYSAEDVVALQGSVVEEHTLARRGAEVLWEQLHDLEWVNALGALTGNMAVQQVRAGLKAIYLSGWQVAGDANLSGHTYPDQSLYPANSVPQVVRRINNALQRADQIAKIEGDTSVENWLAPIVADGEAGFGGALNVYELQKALIAAGVAGSHWEDQLASEKKSGHLGGKVLIPTQQHIRTLTSARLAADVADVPTVVIARTDAEAATLITSDVDERDQPFITGERTREGFYRTKNGIEPCIARAKAYAPFADLIWMETGTPDLEAARQFSEAVKAEYPDQMLAYNCSPSFNWKKHLDDATIAKFQKELAAMGFKFQFITLAGFHALNYSMFDLAYGYAQNQMSAYVELQEREFAAEERGYTATKHQREVGAGYFDRIATTVDPNSSTTALTGSTEEGQFH | soluble
MGGKMEKITCVGHTALDYIFNVEKFPEPNTSIQIPSARKYYGGAAANTAVGIKKLGVNSELLSCVGYDFKNSGYERYLKNLDINISKLYYSEEEETPKAWIFTDKDNNQITFFLWGAAKHYKELNPPNFNTEIVHIATGDPEFNLKCAKKAYGNNLVSFDPGQDLPQYSKEMLLEIIEHTNFLFMNKHEFERASNLLNFEIDDYLERVDALIVTKGSKGSVIYTKDKKIEIPCIKAGKVIDPTGAGDSYRAGFLSAYVKGYDLEKCGLIGAATASFVVEAKGCQTNLPTWDKVVERLEKHRI | soluble
SPYVFSFKMPQEQGQMFQYYPVYMVLPWEQPQQTVPRSPQQTRQQQYEEQIPFYAQFGYIPQLAEPAISGGQQQLAFDPQLGTAPEIAVMSTGEEIPYLQKEAINFRHDSAGVFMPSTSPKPSTTNVFTSAVDQTITPELPEEKDKTDSLREP | soluble
MAHHHHHHMQLQPPKPIIKDFNVGISPLVQTRLPLVFAQGEYPPPMQDVLLVGISLKADFSAVWDWNTKHMYVACIGRYHTKSNMTVGGVNLQKTHDVTIFDKVLRSKEEAANWTLDNAKKYALENEELGSLAGAAVELMILYHPMRHYGYSPYYTVQPGKNPVMFQLPTAYEKRTEEDDKNAMCSRGYA | not soluble
MSSVLRLAMRAKGFSRFLAETQAFPVKNRHFMTSSVRKTGDFEYEDPKSEDEVVNITYVLRDGTERKIRGKVGDNVMFLAHRYDIEMEGACEASLACSTCHVYVDPAFQNKLPEPLEEEDDMLDMAPALKDNSRLGCQIVLTKELDGITVTLPTMTRNFYVDGHVPKPH | not soluble
MAHHHHHHMGTLEAQTQGPGSMSFFLTTPAAIDLGVNIDHVATLRNARGTAYPDPVRAALAAEDAGADAITLHLREDRRHIVDADVRTLRPRVKTRMNLECAVTPEMLDIACEIRPHDACLVPEKRSELTTEGGLDVVGHFDAVRAACKQLADAGVRVSLFIDPDEAQIRAAHETGAPVIELHTGRYADAHDAAEQQREFERIATGVDAGIALGLKVNAGHGLHYTNVQAIAALPGIAELNIGHAIVAHAVFVGWDNAVREMKAIMVAARVAALHGGR | soluble
MIWNEHHECMGRDQLASLQGERLRQMVERIYYNVPFYRNKLQEMGIEPGDIRSIDDLKKLPFTTKQDLRDNYPFGLFAVPQQDIVRFHASSGTTGKSTVVGYTHNDIMMWSEVVARSLTMAGVTKHDIIQVAYGYGLFTGGLGLHYGAEKIGASVIPISGGNTKKQLQLLEDFGSTAIACTPSYAAYLGEAIMEEKLDRSKIKLKAGIFGAEPWTEEMRSQIQQLLGIKAYDIYGLSEVIGPGVSMECSIQHGMHVFEDHFIPEIINPETGEVLPYGELGELVFTAVTKEALPLLRYRTRDLTRLHVERCDCGRTLVRMEKCVGRSDDMLIIRGVNVFPSQVESVLLEMSETKPHYLLVVDRQNNLDTLEIQVEVEDQFFSDEVKELEGLRKRISGNLTSILGLHANVRLVEPGTIERSQGKAQRVVDKRKLNEHKETP | not soluble
MAETKRMTVSQALVEFLGHQWTVDGDIRERTIPGMFGIFGHGNVAGIGQALKQYNVEQPELMPYYQARNEQAMVHQSVGYARMHRRRGTYASAASVGPGATNLLTGAALATTNRLPALLLPSDTFATRVADPVLQQLEQPWDIGLTVNDAFRPVSKFFDRVQRPEQLFSIALAAMRVLTDPAETGAVTIALPEDVQAEMLDVPVEFLQDREWHIRRPR | not soluble
MTVSRFLRNPEQVSVALRGKIAAALDELGYIPNRAPDILSNATSRAIGVLLPSLTNQVFAEVLRGIESVTDAHGYQTMLAHYGYKPEMEQERLESMLSWNIDGLILTERTHTPRTLKMIEVAGIPVVELMDSQSPCLDIAVGFDNFEAARQMTTAIIARGHRHIAYLGARLDERTIIKQKGYEQAMLDAGLVPYSVMVEQSSSYSSGIELIRQARREYPQLDGVFCTNDDLAVGAAFECQRLGLKVPDDMAIAGFHGHDIGQVMEPRLASVLTPRERMGSIGAERLLARIRGESVTPKMLDLGFTLSPGGSI | not soluble
QVQLQQPGAELVKPGASVKLSCKASGYTFTSDWIHWVKQRPGHGLEWIGEIIPSYGRANYNEKIQKKATLTADKSSSTAFMQLSSLTSEDSAVYYCARERGDGYFAVWGAGTTVTVSSAKTTPPSVYPLAPGSAAQTNSMVTLGCLVKGYFPEPVTVTWNSGSLSSGVHTFPAVLQSDLYTLSSSVTVPSSSWPSETVTCNVAHPASSTKVDKKIVPRD | soluble
MGSDKIHHHHHHMFEVFNYEDIICARGNREMPWKPSFQMNVYYYLIDGLLIDSGPYSLAKEAIEFFNAHIIEQVFLSHIHEDHAGMAYWLQEKMQIPIYLHEGSLEEARREPELAKYRLGIWGRRKAFNAEPINDTIKTGSYVFDVIDSPGHCPYHKVLHEKTKGWLFSGDLLNNLKPKSVMFDENTNDTILSIRKVLDLDFTTVFCAHTGIRKNAKNLFLKKLNYLLELQKDTQVLRNRGFSNTEIVEQLFPGPDPISSLSGGEFSSYYLVSTL | not soluble
SNAMSTHVTFDYSKALSFIGEHEITYLRDAVKVTHHAIHEKTGAGNDFLGWVDLPLQYDKEEFARIQKCAEKIKNDSDILLVVGIGGSYLGARAAIEMLNHSFYNTLSKEQRKTPQVLFVGQNISSTYMKDLMDVLEGKDFSINVISKSGTTTEPALAFRIFRKLLEEKYGKEEARKRIYATTDKARGALKTLADNEGYETFVIPDDVGGRFSVLTPVGLLPIAVSGLNIEEMMKGAAAGRDDFGTSELEENPAYQYAVVRNALYNKGKTIEMLINYEPALQYFAEWWKQLFGESEGKDQKGIFPSSANFSTDLHSLGQYVQEGRRDLFETVLKVGKSTHELTIESEENDLDGLNYLAGETVDFVNTKAYEGTLLAHSDGGVPNLIVNIPELNEYTFGYLVYFFEKACAMSGYLLGVNPFDQPGVEAYKKNMFALLGKPGFEELKAELEERLK | soluble
MYKIGIDVGGTNTDAVILDHQLNLIHSVKVPTTDDIQTGIAGALNKVLAESAVDPTKVTHAMLGTTQCTNAIVERKKLAKVGVLRLGYPATASVLPYTAWPKDLVATLSETYALAHGGYEYDGQPLTALDEEELRGILASWRGEVEAIAVIGVFSSLKNDQELFVQALAKEVL | not soluble
MIPKVIHYFWFGRGKKNDVIERCMDSWKVHLPDYEIKEWNEDNFNVHINNFTLQAYQMKKWAFVSDYARLHILYHYGGIYLDTDLEITNSLDPFLDYEGFMGFFSNFDISGGIIGAAKGNKFIKKLLTYYENKNFIDGNGKIDEKTNVEIITEISKKHFGFVGENQTQQILDMTIFPKEYFTVRDVNVKNYAIHHYNASWLSHEEMNKHLKSYRKYYEFTVKWLDNLINNKIDLTPYKNKCIAIFGKGYIGELLVSYLQNNNVPIRQIIDTKFANDTYKDIPIVSSDTISDEVNLIIITPIHSFESIYLSLKEKSCADIISIENLLS | soluble
MKGLIIKQPYANWIVEGKKVWEIRKTPTKIRGRVIIISEKKAVGSVEIVDVLGPFTPEELANHENKHLASYDFLKRYANGKKLYAWVLANPEKYDPPIEVKIPNGAQIWVNLKGFVRR | soluble
MTEVILFFFATPKRATFSLELTSMKKLATLLAGSACALSLLSGTAAAEDKELVFMNWGPYINSGILEQFTKETGIKVIYSTYESNETLYAKLKTHNQGYDLVVPSTYFVAKMRDEGMLQKIDKSKLSNFKNLDSNYLDKPYDPNNDYSIPHVVAITGLAVNTDMYDPNDFQSWGDLWKPELKGQLMLMDDTREVFHIALRKLGYSGNSTDDKQIDEAYAELQKLMPNVLVFNSDNPAAPYLSGEVGLGMLWNGSAAAAQKEGLPIKLVFPKEGGIGWVDNFAISSGAKNVDAAHKMIDFLLRPEIAEQISRDTGYLTGVKASNDKFQDVAPLFPSQEDLDRVEWQSAVGDKTVKYEEYFMKLKAGQ | not soluble
MGSDKIHHHHHHMIISDVLYGEFEVDQVVEELILSKSVQRLKGIHQTGASYLVNKEWNVTRFDHSVGVMLLVKKLGGSVEEQIAGLLHDVSHTAFSHVVDYVFDNRNESYHEEIFSSVVKHSEIPAILAKYGYNYEEILLDDSKWTLLERSAPELCADRVDYTLRDMYTYGYISLEEAHSFLEDVIEVNGKMVLQNIEMAEWFTETYYKEVIDFFMQPMNSYGNDMLAKTLKLALHKKVIHADDFLLEDDELISKLQQCSDPEVHALVSKVHPNVKVKEDRNDYDLYQNNKVRLIDPSLLREGEVVPSSVVSENIRKMSEIAYEKAVRGMYVKVVSD | not soluble
